Results published in patent publication US20130323187A1.
* marks the point of attachment. Decanoyl = CCCCCCCCCC(=O)*; CH2Cl = ClC*

T1: D-6R
T1 sequence: XXXXXXXXXX

T2: D-9Rac/am
T2 sequence: XXXXXXXXXXXXX

T3: Decanoyl-Arg-Val-Lys-Arg-CMK (FI-I, CALBIOCHEM)
T3 sequence: RVKR


Key:
D-6R = test system: T1, D-6R
D-9Rac/am = test system: T2, D-9Rac/am
[1] = test system: T3, Decanoyl-Arg-Val-Lys-Arg-CMK (FI-I, CALBIOCHEM)
Recombinant furin = assay: Ki for inhibition of furin, given as the comparison in the Boc-RVRR-MCA enzyme assay
Sequence of Recombinant furin (P09958 108-715): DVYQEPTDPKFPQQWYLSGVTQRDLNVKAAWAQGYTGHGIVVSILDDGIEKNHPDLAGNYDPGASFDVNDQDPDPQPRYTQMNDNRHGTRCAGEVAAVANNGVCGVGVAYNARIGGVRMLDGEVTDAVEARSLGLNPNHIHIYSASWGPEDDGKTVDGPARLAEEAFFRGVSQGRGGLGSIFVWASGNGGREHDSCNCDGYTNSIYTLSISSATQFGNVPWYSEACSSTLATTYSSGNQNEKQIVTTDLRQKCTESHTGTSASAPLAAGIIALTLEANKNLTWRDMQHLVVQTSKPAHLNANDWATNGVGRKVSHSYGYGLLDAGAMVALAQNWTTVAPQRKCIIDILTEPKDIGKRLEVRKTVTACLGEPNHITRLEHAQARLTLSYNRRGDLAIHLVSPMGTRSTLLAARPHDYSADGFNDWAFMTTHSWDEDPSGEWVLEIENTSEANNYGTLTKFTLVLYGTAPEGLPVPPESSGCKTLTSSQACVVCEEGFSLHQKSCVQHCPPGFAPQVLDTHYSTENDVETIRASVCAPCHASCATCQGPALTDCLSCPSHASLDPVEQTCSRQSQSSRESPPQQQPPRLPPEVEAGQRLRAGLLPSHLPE

Ki (Recombinant furin) [nM]	Molecule	in vitro furin activity (cleavage of Boc-RVRR-MCA) (D-6R)	in vitro furin activity (cleavage of Boc-RVRR-MCA) (D-9Rac/am)	in vitro furin activity (cleavage of Boc-RVRR-MCA) [1]	in vitro furin activity (cleavage of Boc-RVRR-MCA) (L-Bel1)
–	Recombinant furin	inhibited to completion in vitro furin activity	inhibited to completion in vitro furin activity	furin activity is inhibited by the specific furin inhibitor Decanoyl (d)-RVKR-chloromethylketone (CMK)	inhibited to completion in vitro furin activity
1	Decanoyl-RVKR-CH2Cl [Decanoyl-Arg-Val-Lys-Arg-CMK (FI-I, CALBIOCHEM)]	–	–	–	–
